From publication PMC4752221, “Nuclear Export of Pre-Ribosomal Subunits Requires Dbp5, but Not as an RNA-Helicase as for mRNA Export” (PLoS ONE, 2016) come the findings set out here.

For this assay, the target named is T1, His-Mtr2+Mex67 heterodimer (S. cerevisiae, UniProt Q99257 1-599; P34232 1-184).
T1 construct: Mex67 of S. cerevisiae, co-expressed with His-Mtr2; Mtr2 of S. cerevisiae, His-tagged; also called His-Mtr2 and Mex67; Mex67-Mtr2; source: E. coli BL21 DE3, co-expressed, purified (Ni-NTA agarose)
T1 sequence (looked up) 1: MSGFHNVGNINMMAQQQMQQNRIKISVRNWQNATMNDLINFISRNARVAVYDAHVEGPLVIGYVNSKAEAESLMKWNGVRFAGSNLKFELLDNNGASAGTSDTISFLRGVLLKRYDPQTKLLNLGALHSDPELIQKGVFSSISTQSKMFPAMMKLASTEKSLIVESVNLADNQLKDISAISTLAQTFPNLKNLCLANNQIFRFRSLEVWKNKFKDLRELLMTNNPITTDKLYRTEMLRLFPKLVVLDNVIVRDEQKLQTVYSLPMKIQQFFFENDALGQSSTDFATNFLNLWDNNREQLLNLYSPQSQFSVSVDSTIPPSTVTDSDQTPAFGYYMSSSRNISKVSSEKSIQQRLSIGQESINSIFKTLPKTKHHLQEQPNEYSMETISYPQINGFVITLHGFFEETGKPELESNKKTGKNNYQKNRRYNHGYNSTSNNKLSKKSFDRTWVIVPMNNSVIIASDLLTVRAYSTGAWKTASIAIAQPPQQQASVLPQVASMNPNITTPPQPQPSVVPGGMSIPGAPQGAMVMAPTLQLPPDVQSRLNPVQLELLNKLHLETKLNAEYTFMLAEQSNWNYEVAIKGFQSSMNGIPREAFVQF
T1 sequence (looked up) 2: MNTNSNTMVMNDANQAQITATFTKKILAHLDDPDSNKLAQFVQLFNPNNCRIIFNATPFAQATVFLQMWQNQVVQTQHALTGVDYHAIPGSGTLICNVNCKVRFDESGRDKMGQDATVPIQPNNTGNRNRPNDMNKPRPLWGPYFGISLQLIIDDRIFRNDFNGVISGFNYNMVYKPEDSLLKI
Briefly: pull-down; 100 μg purified GST-Dbp5 (mixed with bacterial lysate) held on Glutathione Sepharose 4B beads, washed, then 28 μg purified His-Mtr2+Mex67 added, 1 h at 4°C; 20 mM HEPES pH7.5, 100 mM NaCl, 4 mM MgCl2, 10% Glycerol, 0.1% NP-40, 1 mM DTT; with or without 1 mM ATP and 0.2 mg/ml RNase A (binding increased by ATP, not influenced by RNase A); Western blot and Coomassie. To be noted: both partners purified.

B1: GST-Dbp5 (natural protein, S. cerevisiae, UniProt P20449 1-482, looked up)
chain: MSDTKRDPADLLASLKIDNEKEDTSEVSTKETVKSQPEKTADSIKPAEKLVPKVEEKKTKQEDSNLISSEYEVKVKLADIQADPNSPLYSAKSFDELGLAPELLKGIYAMKFQKPSKIQERALPLLLHNPPRNMIAQSQSGTGKTAAFSLTMLTRVNPEDASPQAICLAPSRELARQTLEVVQEMGKFTKITSQLIVPDSFEKNKQINAQVIVGTPGTVLDLMRRKLMQLQKIKIFVLDEADNMLDQQGLGDQCIRVKRFLPKDTQLVLFSATFADAVRQYAKKIVPNANTLELQTNEVNVDAIKQLYMDCKNEADKFDVLTELYGLMTIGSSIIFVATKKTANVLYGKLKSEGHEVSILHGDLQTQERDRLIDDFREGRSKVLITTNVLARGIDIPTVSMVVNYDLPTLANGQADPATYIHRIGRTGRFGRKGVAISFVHDKNSFNILSAIQKYFGDIEMTRVPTDDWDEVEKIVKKVLKD
notes: Dbp5 (Rat8) of S. cerevisiae, GST-tagged, DBP5 in a pGEX backbone; also called recombinant GST-tagged Dbp5; source: E. coli Rosetta 2, purified (GSTrap 4B Glutathione Sepharose)
With B1, the binding result was “binds”.
